Data: IntAct's records for PubMed 22990235

B1: Mitochondrial intermembrane space import and assembly protein 40 (Saccharomyces cerevisiae), P36046 (parent)
chain: MLRNLVVRNACRNRPSIQVARGLCRHQTRRLMASSPQFGRNSNQEKTAGFIMGILSMAGALYFIAPNRKPLFASRKVESDKTAEEELSSGGEQSPENEDDNNSKSDENGDDNDSKNDETEAGPQLGGDKIGASKVAEDGELVVLAEEDNKSSEDKDTDESKVSTKDDEQSNEDNATANNQKDENISSENSEENTSDKTLDNNAGSSEKKDPEHSDDEKSQQGQSDDKTTTEDNNGEEESSKKTVSDSENSAKQSESSDEEKEELRKQEEKQMGPTEEEVQHEGAYNPDTGEINWDCPCLGGMAHGPCGEEFKSAFSCFVYSEAEPKGIDCVEKFQHMQDCFRKYPEHYAEQLKETSDDEEPQDKVKVNTIESAPNVSSAKENAAKKAEQSDVKKEPLNEESKP
partner: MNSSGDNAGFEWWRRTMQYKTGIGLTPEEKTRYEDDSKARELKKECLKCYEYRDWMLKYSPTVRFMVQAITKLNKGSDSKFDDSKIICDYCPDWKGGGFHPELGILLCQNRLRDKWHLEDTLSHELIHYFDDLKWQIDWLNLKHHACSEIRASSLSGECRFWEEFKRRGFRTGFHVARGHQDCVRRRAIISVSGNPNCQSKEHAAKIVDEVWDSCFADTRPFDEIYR

Variants of: B1
Conditions: with atp23_yeast ATP23, P53722

| Variant | effect of a mutation on the interaction |
| --- | --- |
| F318E | decreasing interaction |
| F315E | decreasing interaction |
